Source: patent US20230348564A1, “ANTI-CANCER PROTEINS” (UNICHEM LABORATORIES LTD, priority 2020, published 2023)

Columns and labels:
Glioma (C6) = test: cytotoxicity in Brain Tumor Cell lines by MTT assay; format: cell-based, Rat; conditions: 72 h
Description: The SEQ ID NO. […] Untreated cells were used as control. […] Cells were incubated for 3 h at 37° C.

MDA-MB-231 [1] = tested on: MDA-MB-231
PANC-1 [2] = tested on: PANC-1
PANC-1 [3] = test: JC-1 assay, mitochondrial membrane depolarization; format: cell-based, Human; conditions: 16h
Description: (§1) To evaluate the in vitro apoptotic effect of recombinant lectin having the amino acid sequence of SEQ ID NO.2 in MDA-MB-231 (breast cancer) and PANG-1 (pancreatic cancer) cell line by JC-1 assay, an increase in mitochondrial membrane depolarization was used as a marker of apoptosis. […] 2 using JC-1 dye based method. […] The cell lines were grown in Dulbecco's Modified Eagle Medium (DMEM)+10% heat inactivated FBS at 37° C. (95% humidity and 5% CO2). […] Recombinant lectin having the amino acid sequence of SEQ ID NO. 2 was diluted in serum free medium. Doxorubicin was used as positive control and stock solution was prepared in dimethyl sulfoxide (DMSO). […] The cells were then incubated overnight under growth conditions to allow the cell recovery and exponential growth. Cells were treated with the recombinant lectin of SEQ ID NO. […] Following respective treatments the cells in the above plate were incubated for 16h in CO2 incubator at 37° C., 5% CO2 and 95% humidity.
(§2) After 16h of incubation, the supernatants were discarded and 100 μL of JC1-dye solution (prepared by diluting 1 mM DMSO stock in to 10 μM in 1×PBS) was added to each well. The cells were then incubated with the dye in CO2 incubator at 37° C. for 15 min. After 15 min of incubation, the supernatant was removed and the cells were washed twice with 1×PBS and then 100 μL of 1×PBS was added to each well. Red fluorescence (excitation 550 nm, emission 600 nm) and green fluorescence (excitation 485 nm, emission 535 nm) were measured using Biotek Synergy FIT plate reader. The mitochondrial membrane potential […] was calculated as the ratio of intensity of red fluorescence to intensity of green fluorescence described as follows:
(§3) ΔΨM=Intensity of red fluorescence/Intensity of green fluorescence
(§4) The percentage decrease of Red fluorescence/Green fluorescence corresponding to each treatment was calculated using the following formula:
(§5) Where X=Δψm corresponding to treated cells R=ΔΨM corresponding to control wells.

MDA-MB-231 [4] = test: JC-1 assay, mitochondrial membrane depolarization; format: cell-based, Human; conditions: 16h
Description: as §1, §2, §3, §4, §5

Notch-1 = test: biomarker levels in IOMM-Lee by ELISA; format: cell-based, Human; conditions: 1 μg/mL-80 μg/mL, 48 h
From the text: Effect of SEQ ID No 2 on the expression of following 7 biomarkers were estimated in Human Meningioma cell line (IOMM-Lee) using multiplex analysis: TNF-alpha, VEGF, VEGFR2, HGF, HGFR/c-MET, PDGF-BB, and Contactin-1. Levels of another marker, Notch-1 were also estimated by ELISA in the same cell line. These 8 biomarkers play very crucial role in the pathogenesis and progression of Brain Tumor. […] Supernatants were collected and the levels of these 8 markers were investigated.

Astrocytoma (U87MG) = test: cytotoxicity in Brain Tumor Cell lines by MTT assay; conditions: 72 h

B1: SEQ ID NO. 2: recombinant lectin; variant of the S. rolfsii lectin amino acid sequence (reported as Rec-2 in WO 2010/095143) (protein)
chain: TYKITVRVYQTNPDAFFHPVEKTVWKYANGGTWTITDDQHVLTMGGSGTSGTLRFHADNGESFTATFGVHNYKRWCDIVTNLAADETGMVINQQYYSQKNREEARERQLSNYQVKNAKGRNFQIVYTEAEGNDLHANLIIG
modifications: In vitro synthesis
% of cytotoxicity (Glioma (C6); 2.5 μg/mL-100 μg/mL): 18.8-48.3%
IC50 Value (Glioma (C6)): >100 mg/L
% Cytotoxicity (MDA-MB-231 [1]): 60.9%
% Cytotoxicity (PANC-1 [2]): 60.8%
Average Green fluorescence (PANC-1 [3]; 2.5 μg/mL): 315.0
Average Red fluorescence (PANC-1 [3]; 2.5 μg/mL): 595.7
Percentage decrease in MMP (%) (PANC-1 [3]; 2.5 μg/mL): 9.5%
Red/Green ratio (PANC-1 [3]; 2.5 μg/mL): 1.89
depolarization of mitochondrial membrane (PANC-1 [3]; 2.5 μg/mL-80 μg/mL): 9.5%-51.7%
Average Green fluorescence (PANC-1 [3]; 5 μg/mL): 293.3
Average Red fluorescence (PANC-1 [3]; 5 μg/mL): 452.3
Percentage decrease in MMP (%) (PANC-1 [3]; 5 μg/mL): 26.2%
Red/Green ratio (PANC-1 [3]; 5 μg/mL): 1.54
Average Green fluorescence (PANC-1 [3]; 10 μg/mL): 271.7
Average Red fluorescence (PANC-1 [3]; 10 μg/mL): 301.7
Percentage decrease in MMP (%) (PANC-1 [3]; 10 μg/mL): 46.9%
Red/Green ratio (PANC-1 [3]; 10 μg/mL): 1.11
Average Green fluorescence (PANC-1 [3]; 20 μg/mL): 234.3
Average Red fluorescence (PANC-1 [3]; 20 μg/mL): 265.7
Percentage decrease in MMP (%) (PANC-1 [3]; 20 μg/mL): 45.8%
Red/Green ratio (PANC-1 [3]; 20 μg/mL): 1.13
Average Green fluorescence (PANC-1 [3]; 40 μg/mL): 263.3
Average Red fluorescence (PANC-1 [3]; 40 μg/mL): 266.0
Percentage decrease in MMP (%) (PANC-1 [3]; 40 μg/mL): 51.7%
Red/Green ratio (PANC-1 [3]; 40 μg/mL): 1.01
Average Green fluorescence (PANC-1 [3]; 80 μg/mL): 257.0
Average Red fluorescence (PANC-1 [3]; 80 μg/mL): 272.0
Percentage decrease in MMP (%) (PANC-1 [3]; 80 μg/mL): 49.4%
Red/Green ratio (PANC-1 [3]; 80 μg/mL): 1.06
Average Green fluorescence (MDA-MB-231 [4]; 2.5 μg/mL): 703.0
Average Red fluorescence (MDA-MB-231 [4]; 2.5 μg/mL): 769.7
Percentage decrease in MMP (%) (MDA-MB-231 [4]; 2.5 μg/mL): 54.1%
Red/Green ratio (MDA-MB-231 [4]; 2.5 μg/mL): 1.09
depolarization of mitochondrial membrane (MDA-MB-231 [4]; 2.5 μg/mL-80 μg/mL): 19.8%-54.1%
Average Green fluorescence (MDA-MB-231 [4]; 5 μg/mL): 560.0
Average Red fluorescence (MDA-MB-231 [4]; 5 μg/mL): 709.3
Percentage decrease in MMP (%) (MDA-MB-231 [4]; 5 μg/mL): 46.9%
Red/Green ratio (MDA-MB-231 [4]; 5 μg/mL): 1.27
Average Green fluorescence (MDA-MB-231 [4]; 10 μg/mL): 596.3
Average Red fluorescence (MDA-MB-231 [4]; 10 μg/mL): 1098.3
Percentage decrease in MMP (%) (MDA-MB-231 [4]; 10 μg/mL): 22.8%
Red/Green ratio (MDA-MB-231 [4]; 10 μg/mL): 1.84
Average Green fluorescence (MDA-MB-231 [4]; 20 μg/mL): 497.3
Average Red fluorescence (MDA-MB-231 [4]; 20 μg/mL): 929.3
Percentage decrease in MMP (%) (MDA-MB-231 [4]; 20 μg/mL): 21.7%
Red/Green ratio (MDA-MB-231 [4]; 20 μg/mL): 1.87
Average Green fluorescence (MDA-MB-231 [4]; 40 μg/mL): 535.7
Average Red fluorescence (MDA-MB-231 [4]; 40 μg/mL): 1009.0
Percentage decrease in MMP (%) (MDA-MB-231 [4]; 40 μg/mL): 21.0%
Red/Green ratio (MDA-MB-231 [4]; 40 μg/mL): 1.88
Average Green fluorescence (MDA-MB-231 [4]; 80 μg/mL): 500.3
Average Red fluorescence (MDA-MB-231 [4]; 80 μg/mL): 957.3
Percentage decrease in MMP (%) (MDA-MB-231 [4]; 80 μg/mL): 19.8%
Red/Green ratio (MDA-MB-231 [4]; 80 μg/mL): 1.91
Percentage inhibition on levels of Notch-1 (Notch-1): 81.2%-99.8%
IC50 Value (Astrocytoma (U87MG)): 98.88 mg/L
